Experiments:
Assay type in all cases: biochemical
[1] = Enzyme activity with pNP-acylesters of different chain length; conditions: 4 mM, 45° C., pH 7.2
Method: Enzyme activity tests were performed by incubating the enzyme with 4 mM substrate at 45° C. in 100 mM Tris-HCl buffer at pH 7.2, unless otherwise indicated. The reaction was measured at 410 nm. One unit is defined as the amount of enzyme catalyzing the appearance of 1 μmol of free p-nitrophenol/min. Enzyme activity against pNP-acylesters (butyrate, valerate, caproate, octanoate, decanoate and palmitate) was tested under the above conditions. […] The enzyme according to SEQ ID NO: 6 converted pNP-caproate with a specific activity of 80.0 U/mg.

[2] = Titration assay with triglycerides; conditions: 10 mM, 37° C., pH 7.0
Method: (§1) Enzyme activities on the substrates triacetin, tripropionin, tributyrin, tricaprylene, trilaurin and vinyl-substrates (vinyl-acetate, ˜propionate, ˜butyrate, ˜caproate, ˜caprylate and ˜laurate) were determined using a standard titration assay with minor modifications. Tests were performed with a Methrom 718 STAT potentiometric titrator (Herisau, Switzerland) and by using 10 mM NaOH for titration. The substrates at 10 mM concentration were emulsified in 20 ml reaction buffer containing 2 mM Tris/HCl pH 7.0. After addition of 7.5 μg of the purified enzyme the NaOH consumption was recorded at a reaction temperature of 37° C. One unit was defined as the amount of enzyme that released […] of fatty acid per min.

[3] = Titration assay with vinyl acid esters; conditions: 10 mM, 37° C., pH 7.0
Method: as §1

[4] = Solvent stability, residual activity; conditions: for Residual activity after 1 h incubation in the presence of solvent: 1 h at 30° C., measured at 45° C.; for activity in the presence of solvent, levels up to: both concentrations (15% and 30% v/v)
Method: The stability of the enzymes was determined in the presence of the following solvents: DMSO, isopropanol, methanol, dimethylformamide, acetone and acetonitrile. The enzymes were incubated for 1 hour at 30° C. in the presence of either 15% (v/v) or 30% (v/v) of the solvents and the residual activity was measured at 45° C. The substrate used was pNP-butyrate.

[5] = Substrate specificity on pNP-substrates with importance for pharmaceutical products; conditions: 30 minute, 40° C., pH 7.5
Method: The substrate range of the two enzymes was determined using pNP esters of the following: benzoate, 2-(4-isobutylphenyl)propanoate (Ibuprofen), 2-phenylpropanoate, 3-phenylbutanoate, cyclohexanoate, 2-(3-benzoylphenyl)propanoate, 2-naphthoate, 1-naphthoate, adamantanoate and 2-(6-methoxynaphthalene-2-yl)propanoate (Naproxen). Activity was determined at 410 nm after 30 minute incubation at 40° C. The reaction mixture was 950 μl buffer (100 mM Tris, pH 7.5), 50 μl substrate (5 mg/ml in DMSO) and 1 μg enzyme.

[6] = Effect of bivalent cations and EDTA on catalytic activity
[7] = Determination of pH optimum by titration; conditions: incubation for up to 48 hours, up to pH 12 (data not shown)
Method: The pH optimum for the enzymes was determined using tributyrin as substrate. The incubation conditions were 20 ml buffer (2.5 mM phosphate buffer [pH 4-7], 2.5 mM Tris/HCl buffer [pH 7-11] or 2.5 mM glycine buffer [pH 9-11], supplemented with 100 mM NaCl) stirred at a constant temperature of 37° C. The esterase substrate tributyrin (final concentration of 2 mM) was added to 5 ml of the corresponding buffer at 37° C., emulsified and added to the whole preparation. This substrate emulsion was held constant at the correct pH automatically by the titrator (718 STAT Titrino; Metrohm, Herisau, Switzerland) for 2 min and this served as the control. […]

[8] = Determination of thermal stability
Method: To assay the thermostability of the enzymes they were incubated at different temperatures for one hour and the residual activity assayed at 10 minute intervals. Residual activity was measured using pNP-caproate as substrate as described above.

B1: EstA3: recombinant enzyme having carboxyl esterase activity, amino acid sequence SEQ ID NO: 2, family VIII of bacterial lipolytic enzymes (protein)
chain: MSAEELGFLPDRLARISDHIQTNYLDNGKLPFASLLIGRGDDIALQWSSGVADDAIFRIASMTKPVTSVAFMQLVEQGKVALTDPVAKYIPEFAKLGVFVAGGGNIPFVSRPPTMPMRIVDVLRHTTGFTYSFQERSNIDAAYRKTDVESWTRSTSQSFIDTLAEIPLEFDPGTQWNYSVSTDVLGILIERISGQSLPDYFRDHIFAPLGMVDTCFTVPADKAARIPQCFAFDPATKMKLFDEAGASSLWTKGWSFNSGGGGLASSVADYHRFCRMLLNGGALDGIQIISPKTLELMTANHLPGGQDLTQMSKSLFSEAEMAGIGFGLGFATTIDSVATLTPCSTGDFYWGGMYSTAFFVDPVEDIIMIFMTQLMPSSTYPVRREIKTMIYSALAA
modifications: metagenomic sequence
Molecule B1 has a specific activity ([1]; substrate pNP-butyrate (C4)) of 513.6 U/mg, a specific activity ([1]; substrate pNP-caproate (C6)) of 425.7 U/mg and a specific activity ([1]; substrate pNP-decanoate (C10)) of 0 U/mg. The specific activity ([1]; substrate pNP-octanoate (C8)) was 3.6 U/mg, the specific activity ([1]; substrate pNP-palmitate (C16)) was 0 U/mg and the specific activity ([1]; substrate pNP-valerate (C5)) was 425.7 U/mg. It also gave a specific activity ([2]; substrate triacetin (C2)) of 147.5 U/mg, a specific activity ([2]; substrate tributyrin (C4)) of 167.5 U/mg and a specific activity ([3]; substrate vinyl acetate (C2)) of 107.5 U/mg. The specific activity ([3]; substrate vinyl butyrate (C4)) was 387.5 U/mg, the specific activity ([3]; substrate vinyl caproate (C6)) was 237.5 U/mg and the specific activity ([3]; substrate vinyl caprylate (C8)) was 155.0 U/mg. The specific activity ([3]; substrate vinyl laurinate (C12)) was 7.5 U/mg, the specific activity ([3]; substrate vinyl propionate (C3)) was 380.0 U/mg and the “Residual activity after 1 h incubation in the presence of solvent” value (from here on “Residual activity after 1 h incubation”) ([4]; 15% (v/v) Acetone) was 152%. The “Residual activity after 1 h incubation” value ([4]; 15% (v/v) Acetonitrile) was 110%, the “Residual activity after 1 h incubation” value ([4]; 15% (v/v) DMSO) was 102% and the “Residual activity after 1 h incubation” value ([4]; 15% (v/v) Dimethylformamid) was 125%. The “Residual activity after 1 h incubation” value ([4]; 15% (v/v) Isopropanol) was 155%, the “Residual activity after 1 h incubation” value ([4]; 15% (v/v) Methanol) was 111% and the “Residual activity after 1 h incubation” value ([4]; 30% (v/v) Acetone) was 155%. For the same molecule, the “Residual activity after 1 h incubation” value ([4]; 30% (v/v) Acetonitrile) was 87%, the “Residual activity after 1 h incubation” value ([4]; 30% (v/v) DMSO) was 104% and the “Residual activity after 1 h incubation” value ([4]; 30% (v/v) Dimethylformamid) was 128%. For the same molecule, the “Residual activity after 1 h incubation” value ([4]; 30% (v/v) Isopropanol) was 117%, the “Residual activity after 1 h incubation” value ([4]; 30% (v/v) Methanol) was 130% and the “activity in the presence of solvent, levels up to” value ([4]; acetone) was no more than 155%. The “activity in the presence of solvent, levels up to” value ([4]; dimethylformamide) was “up to 128%”, the specific activity ([5]; pNP-ester of 1-naphthoate) was 0 U/mg and the specific activity ([5]; pNP-ester of 2-(3-benzoylphenyl) propanoate) was 26.7 U/mg. It also gave a specific activity ([5]; pNP-ester of 2-(4-isobutylphenyl) propanoate (Ibuprofen)) of 7.2 U/mg, a specific activity ([5]; pNP-ester of 2-(6-methoxy-naphthalen-2-yl) propanoate (Naproxen)) of 26.7 U/mg and a specific activity ([5]; pNP-ester of 2-naphthoate) of 0 U/mg. It also gave a specific activity ([5]; pNP-ester of 2-phenylpropanoate) of 21.0 U/mg, a specific activity ([5]; pNP-ester of 3-phenylbutanoate) of 31.6 U/mg and a specific activity ([5]; pNP-ester of adamantanoate) of 0 U/mg. The specific activity ([5]; pNP-ester of benzoate) was 9.4 U/mg, the specific activity ([5]; pNP-ester of cyclohexanoate) was 50.0 U/mg and the “effect on activity, in words” value ([6]; Ca^2+, Cu2+, Mg^2+, Zn^2+, Rb^2+ and EDTA) was “inhibitory effect”. For the same molecule, the “stimulation of catalytic activity” value ([6]; in the presence of Co^2+) was “about 130%”, the “stability under alkaline conditions, in words” value [7] was “extremely stable with little loss of activity” and the “thermal stability, in words” value ([8]; incubated for at least 60 minutes at 40° C.) was “without a major loss of activity”. The “thermal stability, in words” value ([8]; incubation at temperatures above 45° C. for more than 60 minutes (data not shown)) was “rapid inactivation”.

Source: patent US8956838B2, “Carboxyl esterase polypeptides” (B.R.A.I.N., priority 2006, dated 2015)
